This assay deals with T1, mouse GPR12 (mouse, UniProt P35412 1-334).
T1 sequence: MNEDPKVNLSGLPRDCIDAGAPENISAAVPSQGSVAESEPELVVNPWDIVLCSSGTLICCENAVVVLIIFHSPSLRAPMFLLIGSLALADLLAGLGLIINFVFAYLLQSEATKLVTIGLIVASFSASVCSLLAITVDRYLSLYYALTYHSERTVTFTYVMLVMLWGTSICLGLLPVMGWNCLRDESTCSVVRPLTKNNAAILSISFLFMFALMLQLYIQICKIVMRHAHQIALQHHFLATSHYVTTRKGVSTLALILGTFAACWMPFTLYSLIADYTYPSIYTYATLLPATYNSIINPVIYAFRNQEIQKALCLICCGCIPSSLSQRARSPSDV
Description: cell-based or functional assay.

Regarding PDTGLYYDEYLKQVIDVLETDKHFREKLQK [Nesfatin-1M30], the “intracellular cAMP level (Fold against the (-) group), CHO-K1-GPR12 cells, 10^-9 M peptide with 10^-5 M Forskolin” value was approximately 5 fold.

(Values after patent US20090155833A1 (TEIJIN PHARMA, published 2009).)
